B1: biotin-MBP-Atf7IP(574–666) (domain or fragment, human, UniProt Q6VMQ6 574-666, looked up)
chain: EEEYEAEFQVKITAKGDINQKLQKVIQWLLEEKLCALQCAVFDKTLAELKTRVEKIECNKRHKTVLTELQAKIARLTKRFEAAKEDLKKRHEH
modifications: biotin (on the Avi-tag)
notes: also called AviTag-MBP-Atf7IP; source: E. coli, co-expressed with birA with 40μM biotin, purified (MBPTrap, Superdex 200); not shown: AviTag, N-terminal, kept; MBP, N-terminal, kept

How the values were obtained:
[1] = target: T1, His-sumo-Setdb1(2–115) (human, UniProt Q15047 2-115); experiment: AlphaScreen or HTRF; His-sumo-Setdb1 on nickel chelate acceptor beads, biotin-MBP-Atf7IP(574–666) on streptavidin donor beads; 20nM each, or one at 20nM and the other 0–20nM; 50mM MOPS, 50mM CHAPS, 50mM NaF, 100μg/ml BSA, pH7; room temperature; conditions: both partners purified
T1 construct: source: E. coli (BL21DE3 or Rosetta2), purified (HisTrap, dialysis); not shown: His6, N-terminal, kept; SUMO, N-terminal, kept

[2] = target: T2, GST-Setdb1(2–115) (human, UniProt Q15047 2-115); experiment: pull-down; 0.5 μM GST fusion on glutathione Sepharose beads; 1.5 μM hCRM1 with or without 4.5 μM Ran^GTP; MBP-Atf7IP(574–666) pre-incubated at 3-fold or 15-fold excess; TB buffer (20mM HEPES 7.4, 110mM potassium acetate, 2mM magnesium acetate, 10% glycerol, 2mM DTT, 0.005% Tween20); Coomassie SDS-PAGE; conditions: both partners purified
T2 construct: also called GST-Setdb1(2–114); source: E. coli, purified (GSTTrap, Superdex 200); not shown: GST, N-terminal, kept

[3] = target: the molecule itself; experiment: SEC; isolated MBP-Atf7IP(574–666), gel filtration with and without Tween 20
[4] = target: T3, MBP-Setdb1(2–115) (human, UniProt Q15047 2-115); experiment: SEC-MALS; co-expressed complex purified by MBP affinity; Superdex 200 Increase 10/300 GL; about 400 μL at ~1 mg/mL; conditions: both partners purified
T3 construct: Printed mass 56.7 kDa; also called MBP-Setdb1(2–114); source: E. coli, co-expressed with its partners; complex purified (MBPTrap, Superdex 200); not shown: MBP, N-terminal, kept

[5] = target: the molecule itself; experiment: native MS; co-expressed complex purified, exchanged into 400 mM ammonium acetate pH 7.9, 1 mM DTT; 500 nM; HCD 220 V for fragments
[6] = target: the molecule itself; experiment: cross-linking; MBP-Atf7IP(574–666) C608S C612S in isolation, purified on amylose beads, non-reducing; SDS-PAGE with and without BME
[7] = target: B1; experiment: AlphaScreen or HTRF; His-sumo-Setdb1 on nickel chelate acceptor beads, biotin-MBP-Atf7IP(574–666) on streptavidin donor beads; 20nM each, or one at 20nM and the other 0–20nM; 50mM MOPS, 50mM CHAPS, 50mM NaF, 100μg/ml BSA, pH7; room temperature; conditions: both partners purified

B1: binds [1]; binds [2]; binds [3].

B2: 6Xhis-SUMO-Atf7IP(574–666) (domain or fragment, human, UniProt Q6VMQ6 574-666, looked up)
chain: EEEYEAEFQVKITAKGDINQKLQKVIQWLLEEKLCALQCAVFDKTLAELKTRVEKIECNKRHKTVLTELQAKIARLTKRFEAAKEDLKKRHEH
notes: Printed mass 23.2 kDa; not shown: His6, N-terminal, kept; SUMO, N-terminal, kept
For B2, the “stoichiometry N” value [4] was 2 Atf7IP per Setdb1 and the binding result [5] was “binds”.

B3: MBP-Atf7IP (574–666) C608S C612S (domain or fragment, human, UniProt Q6VMQ6 574-666, looked up)
chain: EEEYEAEFQVKITAKGDINQKLQKVIQWLLEEKLSALQSAVFDKTLAELKTRVEKIECNKRHKTVLTELQAKIARLTKRFEAAKEDLKKRHEH
notes: also called Atf7IP(C631); not shown: MBP, N-terminal, kept
B3: binds [6].

B4: 6Xhis-SUMO-Setdb1(Δα1; residues 35–114) (domain or fragment, human, UniProt Q15047 35-114, looked up)
chain: ISMEELRHFIDEELEKMDCVQQRKKQLAELETWVIQKESEVAHVDQLFDDASRAVTNCESLVKDFYSKLGLQYRDSSSED
notes: Setdb1, human, UniProt Q15047, residues 35–114 (helix α1 with NES#1 removed); source: E. coli (BL21DE3 or Rosetta2), purified (HisTrap, dialysis); not shown: His6, N-terminal, kept; SUMO, N-terminal, kept
For B4, the “binding as percent of WT” value [7] was ~80 % of WT.

B5: 6Xhis-SUMO-Setdb1(Δα1- α2; residues 50–114) (domain or fragment, human, UniProt Q15047 50-114, looked up)
chain: KMDCVQQRKKQLAELETWVIQKESEVAHVDQLFDDASRAVTNCESLVKDFYSKLGLQYRDSSSED
notes: Setdb1, human, UniProt Q15047, residues 50–114 (helices α1 and α2 removed); source: E. coli (BL21DE3 or Rosetta2), purified (HisTrap, dialysis); not shown: His6, N-terminal, kept; SUMO, N-terminal, kept
For B5, the “binding as percent of WT” value [7] was ~30 % of WT.
